Molecular target: TLHL

B1: tobacco etch virus (TEV) protease (protein)
chain: GESLFKGPRDYNPISSTICHLTNESDGHTTSLYGIGFGPFIITNKHLFRRNNGTLLVQSLHGVFKVKNTTTLQQHLIDGRDMIIIRMPKDFPPFPQKLKFREPQREERICLVTTNFQTKSMSSMVSDTSCTFPSSDGIFWKHWIQTKDGQCGSPLVSTRDGFIVGIHSASNFTNTNNYFTSVPKNFMELLTNQEAQQWVSGWRLNADSVLWGGHKVFMSKPEEPFQPVKEATQLMNELVYSQ
proteolytic cleavage seen on SDS-PAGE: Incubation of TLHL with the TEV protease in PBS at room temperature or at 4 °C produced therefore, a 19kD band on an SDS-PAGE gel

Source: patent US6521741
